For this assay, the target named is SARS-CoV-2 RBDWT, His-tagged, soluble (SARS-CoV-2) (UniProt P0DTC2). Briefly: ELISA.

A word on the IC50: it is the point on the concentration scale where inhibition reaches its midpoint. A low value points to greater potency.

“soluble ACE2 (sACE2), commercially available, His-tagged (domain or fragment)” showed a 50% inhibitory concentration (IC50) of 179 nM.

These data come from article PMC10293748.
